From patent publication US20120201792A1, “METHODS AND PRODUCTS FOR MANIPULATING HEMATOPOIETIC STEM CELLS” (The General Hospital Corporation, priority 2000, published 2012)

T1: SC-GPR (Homo sapiens, UniProt Q15391)
T1 sequence (Q15391 1-338): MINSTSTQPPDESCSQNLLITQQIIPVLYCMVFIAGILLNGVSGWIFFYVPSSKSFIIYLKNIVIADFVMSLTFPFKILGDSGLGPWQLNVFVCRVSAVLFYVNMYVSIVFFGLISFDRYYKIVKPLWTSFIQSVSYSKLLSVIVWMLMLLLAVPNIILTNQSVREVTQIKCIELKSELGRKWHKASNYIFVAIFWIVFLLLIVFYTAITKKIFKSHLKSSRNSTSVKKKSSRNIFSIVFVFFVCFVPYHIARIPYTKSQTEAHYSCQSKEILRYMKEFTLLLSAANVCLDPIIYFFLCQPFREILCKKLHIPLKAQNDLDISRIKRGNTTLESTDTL

T2: KIAA0001 receptor (Homo sapiens, UniProt Q15391)
T2 sequence (Q15391 1-338): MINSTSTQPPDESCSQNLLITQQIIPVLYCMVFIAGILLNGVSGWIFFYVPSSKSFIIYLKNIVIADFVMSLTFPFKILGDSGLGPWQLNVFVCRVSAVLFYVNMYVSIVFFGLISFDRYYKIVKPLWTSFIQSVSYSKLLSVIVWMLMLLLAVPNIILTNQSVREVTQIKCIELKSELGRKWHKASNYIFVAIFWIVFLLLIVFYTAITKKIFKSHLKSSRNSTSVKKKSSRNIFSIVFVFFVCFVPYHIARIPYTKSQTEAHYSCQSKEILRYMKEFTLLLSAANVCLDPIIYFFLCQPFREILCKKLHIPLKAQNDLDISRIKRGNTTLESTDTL


What was measured:
[1] = biological target: T1, SC-GPR; experiment: Intracellular calcium flux (Fura-2) in Cos-7 cells expressing SC-GPR; conditions: Fura-2 loaded cells expressing SC-GPR, fluorescence ratio F340/F380
[2] = biological target: T2, KIAA0001 receptor; conditions: Chambers et al., 2000 J Biol Chem; cited from earlier work

| Molecule | calcium flux / activation of SC-GPR expressing cells [1] | binding to the receptor and induction of calcium flux [2] |
| --- | --- | --- |
| Nc1ncnc2c1ncn2[C@@H]1O[C@H](COP(=O)(O)OP(=O)(O)OP(=O)(O)O)[C@@H](O)[C@H]1O [ATP] | failed to result in activation | – |
| CCCCC/C=C\C[C@@H](O)/C=C/C=C/C=C\[C@@H](O)CCCC(=O)O [LTB4] | failed to result in activation | – |
| CCCCCCCCCCCCCCCCOC[C@H](COP(=O)([O-])OCC[N+](C)(C)C)OC(C)=O [PAF] | failed to result in activation | – |
| CC(=O)N[C@H]1[C@@H](OP(=O)(O)OP(=O)(O)OC[C@H]2O[C@@H](n3ccc(=O)[nH]c3=O)[C@H](O)[C@@H]2O)O[C@H](CO)[C@@H](O)[C@@H]1O [UDP-N-acetylglucosamine] | – | bind to the receptor and induce calcium flux |
| O=C(O)[C@H]1O[C@H](OP(=O)(O)OP(=O)(O)OC[C@H]2O[C@@H](n3ccc(=O)[nH]c3=O)[C@H](O)[C@@H]2O)[C@H](O)[C@@H](O)[C@@H]1O [UDP-glucuronic acid] | – | bind to the receptor and induce calcium flux |
| IL-8: known chemokine screened as potential SC-GPR ligand | failed to result in activation | – |
| MCP 1: known chemokine screened as potential SC-GPR ligand | failed to result in activation | – |
| MCP 3: printed as "MCP 1, 3, 4"; known chemokine screened | failed to result in activation | – |
| MCP 4: printed as "MCP 1, 3, 4"; known chemokine screened | failed to result in activation | – |
| MIP1a: known chemokine screened as potential SC-GPR ligand | failed to result in activation | – |
| PF4: known chemokine screened as potential SC-GPR ligand | failed to result in activation | – |
| RANTES: known chemokine screened as potential SC-GPR ligand | failed to result in activation | – |
| SDF-1: known chemokine screened as potential SC-GPR ligand | failed to result in activation | – |
| MIP1b: known chemokine screened as potential SC-GPR ligand (protein) APMGSDPPTACCFSYTARKLPRNFVVDYYETSSLCSQPAVVFQTKRSKQVCADPSESWVQEYVYDLELN | failed to result in activation | – |
| TARC: known chemokine screened as potential SC-GPR ligand (protein) ARGTNVGRECCLEYFKGAIPLRKLKTWYQTSEDCSRDAIVFVTVQGRAICSDPNNKRVKNAVKYLQSLERS | failed to result in activation | – |
